This assay concerns the target Atg17 (Lachancea thermotolerans), crystallised construct (Lachancea thermotolerans). The assay is described as follows: SEC-MALS.

With “Atg17 (Lachancea thermotolerans), crystallised construct (natural protein)”, the stoichiometry N is 2.

The values above are taken from publication PMC3806636.
